First the molecules themselves.
B1: RSPH3 (parent)
chain: QRLEEQERRHREEKERRKKQQWEI
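Further: lentivirally expressed fusions sorted by FACS into six bins by GFP to DsRed ratio, PSI derived from sequencing read proportions per bin multiplied by bin number.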

In this data set the parent is B1. The data set can be described thus: protein stability index of a GFP-peptide fusion (GPS, HEK-293T) (PSI 1-6); higher = more stable. To be noted: c terminus: a fixed tail appended.
For the variant QRLEEQERRHREEKERRKKQQWEC [I24C], the protein stability index is 4.48.

On to QRLEEQERRHREEKERRKKQQWEK [I24K], for which the protein stability index turned out to be 4.25.

QRLEEQERRHREEKERRKKQQWEV [I24V]: the protein stability index came out at 5.01.

Turning to QRLEEQERRHREEKERRKKQQWEQ [I24Q], the protein stability index worked out at 4.39.

With QREEEQERRHREEKERRKKQQWEI [L3E], the protein stability index stood at 5.28.

As to QRWEEQERRHREEKERRKKQQWEI [L3W], the protein stability index is 4.06.

Consider QRAEEQERRHREEKERRKKQQWEI [L3A], for which the protein stability index was determined as 4.37.

For QRDEEQERRHREEKERRKKQQWEI [L3D], the protein stability index amounted to 4.82.

As to QRKEEQERRHREEKERRKKQQWEI [L3K], the protein stability index is 4.4.

As to QRGEEQERRHREEKERRKKQQWEI [L3G], the protein stability index came out at 4.75.

For the variant QRCEEQERRHREEKERRKKQQWEI [L3C], the protein stability index was 4.36.

Regarding QRVEEQERRHREEKERRKKQQWEI [L3V], the protein stability index was 4.82.

QRYEEQERRHREEKERRKKQQWEI [L3Y]: the protein stability index was 4.43.

Take QRIEEQERRHREEKERRKKQQWEI [L3I]: the protein stability index was found to be 5.

In the case of QRLEAQERRHREEKERRKKQQWEI [E5A], the protein stability index was 4.63.

Turning to QRLEVQERRHREEKERRKKQQWEI [E5V], the protein stability index stood at 4.58.

For the variant QRLESQERRHREEKERRKKQQWEI [E5S], the protein stability index was determined as 4.5.

As to QRLEDQERRHREEKERRKKQQWEI [E5D], the protein stability index is 4.55.

As to QRLEIQERRHREEKERRKKQQWEI [E5I], the protein stability index worked out at 4.62.

Regarding QRLENQERRHREEKERRKKQQWEI [E5N], the protein stability index turned out to be 3.67.

Take QRLEPQERRHREEKERRKKQQWEI [E5P]: the protein stability index was 4.42.

QRLEHQERRHREEKERRKKQQWEI [E5H]: the protein stability index is 4.59.

On to QRLEQQERRHREEKERRKKQQWEI [E5Q], for which the protein stability index turned out to be 5.01.

In the case of QRLELQERRHREEKERRKKQQWEI [E5L], the protein stability index turned out to be 4.44.

Consider QRLERQERRHREEKERRKKQQWEI [E5R], for which the protein stability index worked out at 4.13.

On to QRLEEQERRHREEKERRKKQQWQI [E23Q], for which the protein stability index amounted to 3.95.

With QRLEEQERRHREEKERRKKQQWYI [E23Y], the protein stability index was determined as 4.09.

As to QRLEEQERRHREEKERRKKQQWLI [E23L], the protein stability index was found to be 4.21.

Consider QRLEEQERRHREEKERRKKQQWFI [E23F], for which the protein stability index was 3.42.

As for QRLEEQERRHREEKERRKKQQWAI [E23A], the protein stability index was 3.51.

As for QRLEEQERRHREEKERRKKQQWMI [E23M], the protein stability index was 4.2.

Turning to QRLEEQERRHREEKERRKKQQWHI [E23H], the protein stability index was found to be 4.39.

As for QRLEEQERRHREEKERRKKQQWNI [E23N], the protein stability index came to 4.19.

Consider QRLEEQEFRHREEKERRKKQQWEI [R8F], for which the protein stability index was determined as 4.28.

Regarding QRLEEQEGRHREEKERRKKQQWEI [R8G], the protein stability index was 5.02.

Regarding QRLEEQETRHREEKERRKKQQWEI [R8T], the protein stability index stood at 4.97.

Turning to QRLEEQEPRHREEKERRKKQQWEI [R8P], the protein stability index was determined as 5.03.

With QRLEEQEWRHREEKERRKKQQWEI [R8W], the protein stability index turned out to be 4.09.

Turning to QRLEEQEHRHREEKERRKKQQWEI [R8H], the protein stability index worked out at 4.57.

For the variant QRLEEQEMRHREEKERRKKQQWEI [R8M], the protein stability index is 3.7.

QRLEEQESRHREEKERRKKQQWEI [R8S]: the protein stability index came to 4.64.

In the case of QKLEEQERRHREEKERRKKQQWEI [R2K], the protein stability index was found to be 4.26.

For the variant QILEEQERRHREEKERRKKQQWEI [R2I], the protein stability index worked out at 3.83.

Take QALEEQERRHREEKERRKKQQWEI [R2A]: the protein stability index was 4.57.

Take QPLEEQERRHREEKERRKKQQWEI [R2P]: the protein stability index is 4.1.

In the case of QYLEEQERRHREEKERRKKQQWEI [R2Y], the protein stability index came to 4.07.

As for QSLEEQERRHREEKERRKKQQWEI [R2S], the protein stability index worked out at 5.

Consider QFLEEQERRHREEKERRKKQQWEI [R2F], for which the protein stability index was 4.48.

Take QMLEEQERRHREEKERRKKQQWEI [R2M]: the protein stability index worked out at 4.06.

For QTLEEQERRHREEKERRKKQQWEI [R2T], the protein stability index came to 5.02.

With SRLEEQERRHREEKERRKKQQWEI [Q1S], the protein stability index was determined as 4.66.

In the case of PRLEEQERRHREEKERRKKQQWEI [Q1P], the protein stability index came to 5.21.

Regarding ARLEEQERRHREEKERRKKQQWEI [Q1A], the protein stability index is 4.69.

In the case of DRLEEQERRHREEKERRKKQQWEI [Q1D], the protein stability index came to 4.59.

In the case of CRLEEQERRHREEKERRKKQQWEI [Q1C], the protein stability index was 3.83.

Take GRLEEQERRHREEKERRKKQQWEI [Q1G]: the protein stability index stood at 4.83.

As for ERLEEQERRHREEKERRKKQQWEI [Q1E], the protein stability index worked out at 4.86.

Turning to MRLEEQERRHREEKERRKKQQWEI [Q1M], the protein stability index turned out to be 4.76.

As for NRLEEQERRHREEKERRKKQQWEI [Q1N], the protein stability index worked out at 4.5.

Turning to IRLEEQERRHREEKERRKKQQWEI [Q1I], the protein stability index turned out to be 4.4.

As to QRLEEQERRHREEKERRKKAQWEI [Q20A], the protein stability index came to 4.34.

With QRLEEQERRHREEKERRKKPQWEI [Q20P], the protein stability index stood at 4.68.

Take QRLEEQERRHREEKERRKKVQWEI [Q20V]: the protein stability index amounted to 3.64.

On to QRLEEQERRHREEKERRKKYQWEI [Q20Y], for which the protein stability index was found to be 4.19.

As for QRLEEQERRHREEKERRKKHQWEI [Q20H], the protein stability index was found to be 4.16.

As to QRLEEQERRHREEKERRKKNQWEI [Q20N], the protein stability index turned out to be 4.56.

Consider QRLEEQERRHREEKERRKKFQWEI [Q20F], for which the protein stability index came out at 4.19.

Turning to QRLEEWERRHREEKERRKKQQWEI [Q6W], the protein stability index was determined as 4.18.

For QRLEENERRHREEKERRKKQQWEI [Q6N], the protein stability index came out at 4.4.

On to QRLEEMERRHREEKERRKKQQWEI [Q6M], for which the protein stability index is 3.96.

In the case of QRLEELERRHREEKERRKKQQWEI [Q6L], the protein stability index was found to be 4.49.

In the case of QRLEEGERRHREEKERRKKQQWEI [Q6G], the protein stability index was 4.59.

For QRLEEDERRHREEKERRKKQQWEI [Q6D], the protein stability index is 4.6.

As for QRLEEQERRHREEKERRKKQHWEI [Q21H], the protein stability index was found to be 4.39.

QRLEEQERRHREEKERRKKQRWEI [Q21R]: the protein stability index amounted to 4.46.

As to QRLEEQERRHREEKERRKKQMWEI [Q21M], the protein stability index was 4.02.

With QRLEEQERRHREEKERRKKQPWEI [Q21P], the protein stability index worked out at 4.6.

Turning to QRLEEQERRHREEKERRKKQEWEI [Q21E], the protein stability index worked out at 5.39.

In the case of QRLEEQERRHREEKERRKKQGWEI [Q21G], the protein stability index worked out at 4.61.

With QRLEEQERRHREEKERRKKQNWEI [Q21N], the protein stability index was 4.67.

As to QRLEEQERRHREEKERRKKQDWEI [Q21D], the protein stability index was determined as 5.22.

Turning to QRLEEQERRHREEKERRKKQTWEI [Q21T], the protein stability index turned out to be 4.68.

Regarding QRLEEQERRHREEKEYRKKQQWEI [R16Y], the protein stability index was 4.74.

Regarding QRLEEQERRHREEKEDRKKQQWEI [R16D], the protein stability index is 5.37.

For the variant QRLEEQERRHREEKELRKKQQWEI [R16L], the protein stability index came to 4.67.

For QRLEEQERRHREEKEGRKKQQWEI [R16G], the protein stability index is 4.84.

As to QRLEEQERRHREEKEFRKKQQWEI [R16F], the protein stability index was determined as 4.06.

Turning to QRLEEQERRHREEKEQRKKQQWEI [R16Q], the protein stability index was 4.75.

With QRLEEQERRHREEKEVRKKQQWEI [R16V], the protein stability index is 5.18.

On to QRLEEQERRHREEKETRKKQQWEI [R16T], for which the protein stability index worked out at 5.11.

Take QRLEEQERRHREEKEPRKKQQWEI [R16P]: the protein stability index is 4.97.

Turning to QRLEEQERRHREEKECRKKQQWEI [R16C], the protein stability index worked out at 5.12.

As for QRLEEQERRHREEKEERKKQQWEI [R16E], the protein stability index is 5.23.

For QRLEEQERRHREEKEIRKKQQWEI [R16I], the protein stability index was 5.

These data come from the supplement of paper PMC10567573.
